Assay results published in paper PMC10619557, “Crystal Structures of 6-Phosphogluconate Dehydrogenase from Corynebacterium glutamicum” (Journal of Microbiology and Biotechnology, 2023).

Columns and labels:
purified protein [1] = substrate: NC(=O)c1ccc[n+]([C@@H]2O[C@H](COP(=O)(O)OP(=O)(O)OC[C@H]3O[C@@H](n4cnc5c(N)ncnc54)[C@H](OP(=O)(O)O)[C@@H]3O)[C@@H](O)[C@H]2O)c1; assay: purified protein; type: biochemical, Corynebacterium glutamicum; settings: NADP 0.01-2 mM, 5 mM 6PG, 40 mM Tris-HCl pH 8.0, 20 °C, varied: cofactor
purified protein [2] = substrate: O=C(O)[C@H](O)[C@@H](O)[C@H](O)[C@H](O)COP(=O)(O)O; assay: purified protein; type: biochemical, Corynebacterium glutamicum; settings: 6PG 0.1-5 mM, 2 mM NADP, 40 mM Tris-HCl pH 8.0, 20 °C

B1: Cg6PGD (Corynebacterium glutamicum ATCC 13032) (protein)
chain: MTNGDNLAQIGVVGLAVMGSNLARNFARNGNTVAVYNRSTDKTDKLIADHGSEGNFIPSATVEEFVASLEKPRRAIIMVQAGNATDAVINQLADAMDEGDIIIDGGNALYTDTIRREKEISARGLHFVGAGISGGEEGALNGPSIMPGGPAKSYESLGPLLESIAANVDGTPCVTHIGPDGAGHFVKMVHNGIEYADMQVIGEAYHLLRYAAGMQPAEIAEVFKEWNAGDLDSYLIEITAEVLSQVDAETGKPLIDVIVDAAGQKGTGRWTVKAALDLGIATTGIGEAVFARALSGATSQRAAAQGNLPAGVLTDLEALGVDKAQFVEDVRRALYASKLVAYAQGFDEIKAGSDENNWDVDPRDLATIWRGGCIIRAKFLNRIVEAYDANAELESLLLDPYFKSELGDLIDSWRRVIVTATQLGLPIPVFASSLSYYDSLRAERLPAALIQGQRDFFGAHTYKRIDKDGSFHTEWSGDRSEVEA
notes: full length, 484 residues (Met1-Ala484), C-terminal His6 (pET-30a), E. coli BL21(DE3)-T1R
With B1 the Km (purified protein [1]) was 162.8 ± 9.5 µM, the kcat (purified protein [1]) was 17.1 ± 0.282 s⁻¹ and the kcat/Km (purified protein [1]) was 105000 M⁻¹ s⁻¹. For the same protein, the Km (purified protein [2]) was 340.8 ± 30 µM, the kcat (purified protein [2]) was 19 ± 0.452 s⁻¹ and the kcat/Km (purified protein [2]) was 55700 M⁻¹ s⁻¹.
